According to PMC7838286:

Tests used:
[1] = target: Cp150 homodimer (Cp149 variant with a C-terminal cysteine) (Hepatitis B Virus); experiment: SEC; 2 uM Cp150Bo with 4 uM holey capsid, 300 mM NaCl, 23 °C, 24 h; 2 uM Cp150Bo alone with 300 mM NaCl as control; Superose 6 with absorbance at 280 and 504 nm and fluorescence at 512 nm
[2] = target: Cp150 homodimer (Cp149 variant with a C-terminal cysteine) (Hepatitis B Virus); experiment: cryo-EM structure; capsids left after treatment of co-assembled capsids with 3 M urea and 100 uM EDTA; C1 symmetry throughout; complete capsid 6.2 Å, holey capsids 10.8 Å and 12.9 Å

Row | Substance | Cp150Bo dimers added per holey capsid (dimers per holey capsid) [1] | stoichiometry N [2] [dimers]
1 | Cp150Bo homodimer (BODIPY-FL-labeled Cp150) (domain or fragment) | 16 | –
2 | Cp150 homodimer (Cp149 variant with a C-terminal cysteine) (domain or fragment) | – | 120
